In patent publication US9664676B2, “RNA sequences that induce fluorescence of small molecule fluorophores” (Cornell University, priority 2013, dated 2017):

What was measured:
[1] = taken from Song et al.; cited from earlier work
(CGG)60-Spinach2 foci = assay: Effects of drugs on CGG RNA foci in COS-7 cells expressing (CGG)60-Spinach2; assay type: cell-based
Protocol: Transfection of COS-7 Cells and Live Cell Imaging: COS-7 cells (ATCC-CRL-1651) were cultured and passaged in DMEM supplemented with 50 units of penicillin and 50 μg of streptomycin per milliliter. For imaging experiments, cells were grown on cells cultured on 24-well glass-bottom dishes and transfected with 0.6 μg of pCDNA-60CGG-Spinach or pCDNA-60CGG-Spinach2 using FuGeneHD (Roche) per the manufacturer's instructions in DMEM medium lacking penicillin and streptomycin. Cells were imaged in CO2-independent medium (Invitrogen) supplemented with L-glutamine. At 30 min-1 h before imaging, medium was supplemented with 25 mM HEPES, 5 mM MgSO4, 1 μg/ml Hoechst 33342 (when appropriate) and 20 μM DFHBI or vehicle. Live fluorescence images were acquired in a temperature-controlled chamber at 35-37° C. with a CoolSnap HQ2 CCD camera through a 60× oil objective (Plan Apo 1.4 numerical aperture (NA)) mounted on a Nikon TE2000 epifluorescence microscope and analyzed with the NIS-Elements software. Spinach was imaged with a filter cube typically used for fluorescein or EGFP, with a sputter-coated excitation filter 470/40 nm, dichroic mirror 495 nm (long-pass), and emission filter 525/50 (Chroma Technology). DsRed-Max and mCherry were imaged using a filter cube typically used for Texas Red, with a sputter coated excitation filter 560/40 nm and emission filter 630/75 nm (Chroma Technology). Background intensity was subtracted from all pixel intensity measurements. Image analyses were completed with NIS-Elements AR 3.2 (Nikon). Drug treatments were carried out as specified. Tautomycin was used at a final concentration of 5 μM in all cases. 1a was used at a final concentration 20 μM in all cases. DMSO was added to a final concentration of 0.1% for vehicle treatments.

[2] = Folding assay (fraction of RNA folded, DFHBI); assay type: physicochemical
Protocol: Folding Assay: The folding assay involves measurement of fluorescence under two conditions, one in which RNA is in excess relative to DFHBI, and one in which the DFHBI is in excess relative to RNA. As Spinach and DFHBI form a 1:1 stoichiometric complex, the maximum amount of complex that can be formed is determined by the limiting component. In the first condition, the fluorescence was determined by incubation of 0.1 μM DFHBI and 100-fold excess (10 μM) Spinach. This value was used to define the fluorescence of 0.1 μM Spinach-DFHBI complex. It was assumed that even if nearly all Spinach is misfolded or unfolded, there will be enough properly folded Spinach to stoichiometrically bind 0.1 μM DFHBI. This was confirmed by measuring fluorescence after doubling the RNA to 20 μM, which caused no increase in fluorescence. In the second condition, the fluorescence obtained using 10 μM DFHBI and 0.1 μM Spinach was measured. In theory, up to 0.1 μM Spinach-DFHBI can form if all the Spinach is folded. However, if a portion of Spinach is unfolded, the fluorescence will be proportionately less than the fluorescence of 0.1 μM Spinach-DFHBI. Thus, this approach can reveal the fraction of Spinach that is folded under diverse conditions.
Fluorescence was measured for each RNA under the following conditions: (i) 0.1 μM RNA and 10 μM DFHBI, and (ii) 0.1 μM DFHBI and 10 μM RNA. For each condition, the signal from DFHBI without RNA was subtracted from each signal. Fluorescence was measured in 20 mM HEPES pH 7.4, 100 mM KCl and 1 mM MgCl2 at the designated temperature. Fluorescence measurements were performed using a PerkinElmer LS-55 fluorescence spectrometer using the following instrument parameters: excitation wavelength, 460 nm; emission wavelength, 501 nm; slit widths, 10 nm. Signal from the first condition (limiting RNA) was divided by the signal from the second condition (limiting dye) to determine the fraction folded.

[3] = Thermostability measurements of Spinach RNAs with DFHBI; assay type: physicochemical; settings: fluorescence of RNA-DFHBI complex in vitro, 20-60 °C; ±s.e.m.
Protocol: Thermostability Measurements: Spinach or Spinach2 (1 μM) was incubated in 20 mM HEPES pH 7.4, 100 mM KCl, 1 mM MgCl2 and 10 μM DFHBI. Fluorescence values were recorded in 1° C. increments from 20° C. to 60° C., with a 5-min incubation at each temperature to allow for equilibration. Fluorescence measurements were performed using a PerkinElmer LS-55 fluorescence spectrometer using the following instrument parameters: excitation wavelength, 460 nm; emission wavelength, 501 nm; slit widths, 10 nm. Curves were fitted using the Boltzmann sigmoidal equation in GraphPad Prism 5 software. Values presented are mean and s.e.m. from three independent measurements.

[4] = In vitro fluorescence (brightness) of Spinach RNAs, mutants and flanked/fused constructs with DFHBI; assay type: biochemical; settings: for Percent Brightness (at 42° C.): percent of signal remaining at 42 °C for a given mutant; for Relative Brightness (at 25° C.): relative to Spinach
Source text: Preparation and Analysis of Spinach and Spinach Mutants: RNAs were created by using the appropriate single-stranded DNA templates (Integrated DNA Technologies) and PCR amplification using primers that included a 5′ T7 promoter sequence to generate double-stranded DNA templates. PCR products were then purified with PCR purification columns (Qiagen) and used as templates for in vitro T7 transcription reactions (Epicentre) as described previously (Paige et al., “RNA mimics of green fluorescent protein,” Science 333: 642-646 (2011), which is hereby incorporated by reference in its entirety). RNA was purified using ammonium acetate precipitation, and quantified using both absorbance values and the Riboquant Assay kit (BD Biosciences). Photophysical characterization of Spinach2 was carried out as previously described (Paige et al., “RNA mimics of green fluorescent protein,” Science 333: 642-646 (2011), which is hereby incorporated by reference in its entirety).
Preparation and In Vitro Analysis of Flanked Spinach and Spinach2 Constructs: Spinach and Spinach2 constructs flanked on either side by 50 base pairs were generated by PCR. For Spinach, the following primers were used:
The 50-base-pair sequences were taken from the human β-actin 3′ untranslated region. Both forward primers encode the T7 RNA polymerase promoter for in vitro transcription. 5S-Spinach and 5S-Spinach2 were amplified by PCR from pAV-5S-Spinach and pAV-5S-Spinach2, respectively, using the following primers: […]
PCR products were used as templates for in vitro transcription by Ampliscribe T7 RNA polymerase as previously described (Paige et al., “RNA mimics of green fluorescent protein,” Science 333: 642-646 (2011), which is hereby incorporated by reference in its entirety). Fluorescence measurements were recorded for 0.1 μM RNA in the presence of 10 μM DFHBI in buffer composed of 20 mM HEPES pH 7.4, 100 mM KCl and […] as described above.
Next, systematic mutagenesis was carried out to identify thermostable Spinach mutants with improved folding. Because elevated G+C content can lead to stable misfolded structures (Kiliszek et al., “Crystal Structures of CGG RNA Repeats with Implications for Fragile X-Associated Tremor Attaxia Syndrome,” Nuc. Acids Res. 39:7308-7315 (2011); Sobczak et al., “RNA Structure of Trinucleotide Repeats Associated with Human Neurological Diseases,” Nuc. Acids Res. 31:5469-5482 (2003), each of which is hereby incorporated by reference in its entirety), it was reasoned that decreasing the overall G+C content could promote proper folding. Scanning mutagenesis was carried out, mutating every […] and cytosine to adenosine or uracil, respectively. In regions where G and C residues were predicted to form a base pair, both residues were mutated to A and U, to maintain the complementarity. Each of these 35 mutants was synthesized in vitro, and the fraction folded was measured at 25° C. and 42° C. Fluorescence signals that were equal to or greater than Spinach at 25° C. indicated equal or greater percent folded. A higher percentage signal at 42° C. indicated improved thermostability relative to Spinach.

For `CC1=N/C(=C\c2cc(F)c(O)c(F)c2)C(=O)N1CC(F)(F)F` [DFHBI-1T], the Abs max [1] is listed as 423 nm, the Brightness [1] is listed as 0.12 and the Em max [1] is listed as 495 nm. The Ex max [1] was 426 nm, the Ext. coeff. [1] was 35,400 M^−1cm^−1 and the Quantum yield [1] was 0.00098.

In the case of `C=C1[C@@H](O)[C@@H]2O[C@]3(CC[C@H](/C=C/[C@@H](C)[C@@H]4CC(C)=C[C@@]5(O[C@H](C[C@@](C)(O)C(=O)O)CC[C@H]5O)O4)O3)CC[C@H]2O[C@@H]1[C@@H](O)C[C@H](C)[C@H]1O[C@@]2(CCCCO2)CC[C@H]1C` [okadaic acid], the “disruption of existing foci” value ((CGG)60-Spinach2 foci; 1a: imaging every 5 min for 2 h, okadaic acid: over 4 h) is reported as “No disruption of foci”.

With `CO[C@H]([C@H](O)CC(=O)[C@@H](C)[C@@H](O)CC[C@@H](C)[C@@H]1O[C@]2(CC[C@@H](C)[C@H](CC[C@H](C)C(C)=O)O2)CC[C@@H]1C)[C@H](OC(=O)C[C@@H](O)C1=C(C)C(=O)OC1=O)C(C)C` [tautomycin] the “time to disaggregation of existing foci” value ((CGG)60-Spinach2 foci; 5 μM) was 1 h, the “effect on formation of (CGG)60-Spinach2 foci” value ((CGG)60-Spinach2 foci; 20 μM 1a or 5 μM tautomycin) was “prevented formation of (CGG)60-Spinach2 foci” and the nuclei containing foci ((CGG)60-Spinach2 foci; 24 h treatment, 20 μM 1a or 5 μM tautomycin, ±s.e.m.) was 12±4.2%.

B1: Spinach1.2: Spinach mutant with perfect complementarity in stem 1 and stem loop 3, SEQ ID NO: 31 (nucleic acid)
chain: GACGCGACCGAATGAAATGGTGAAGGACGGGTCCAGCCGGCTGCTTCGGCAGCCGGCTTGTTGAGTAGAGTGTGAGCTCCGTAACTGGTCGCGTC
modifications: listed as DNA, chemistry not given here
With B1 the percentage folded ([2]; 25 °C, no tRNA scaffold) was 27±2.1%, the percentage folded ([2]; 37 °C, no tRNA scaffold) was 16±2.3% and the “melting temperature (Tm)” value [3] was 38±0.3 °C. The “dimmer than Spinach” value ([4]; 1 μM RNA, 10 μM DFHBI, 25 °C) was 16%, the “Percent Brightness (at 42° C.)” value [4] was 41% and the “Relative Brightness (at 25° C.)” value ([4]; 25 °C) was 0.8.

B2: Spinach: RNA aptamer binding DFHBI, SEQ ID NO: 1 (nucleic acid)
chain: GACGCAACUGAAUGAAAUGGUGAAGGACGGGUCCAGGUGUGGCUGCUUCGGCAGUGCAGCUUGUUGAGUAGAGUGUGAGCUCCGUAACUAGUCGCGUC
modifications: listed as RNA, chemistry not given here
B2 showed a percentage folded ([2]; 25 °C, in the presence of the tRNA (tRNA^Lys3 scaffold)) of 50±3.9%, a percentage folded ([2]; 25 °C, no tRNA scaffold) of 32±4.2% and a percentage folded ([2]; 37 °C, in the presence of the tRNA (tRNA^Lys3 scaffold)) of 24±2.4%. The percentage folded ([2]; 37 °C, no tRNA scaffold) was 13±2.8%, the “melting temperature (Tm)” value [3] was 34±0.6 °C and the “fluorescence when fused to the CGG repeat-containing RNA” value [4] was “essentially nonfluorescent”. The “brightness of flanked RNA relative to the same aptamer alone” value ([4]; flanked by 50 nt of RNA on both 5′ and 3′ ends, 0.1 μM RNA) was 20%, the “Percent Brightness (at 42° C.)” value [4] was 19% and the “Relative Brightness (at 25° C.)” value ([4]; 25 °C) was 1.0.

B3: Spinach1.1: Spinach mutant with perfect complementarity in stem 1, SEQ ID NO: 30 (nucleic acid)
chain: GACGCGACCGAATGAAATGGTGAAGGACGGGTCCAGGTGTGGCTGCTTCGGCAGTGCAGCTTGTTGAGTAGAGTGTGAGCTCCGTAACTGGTCGCGTC
modifications: listed as DNA, chemistry not given here
In the case of B3, the “melting temperature (Tm)” value [3] is reported as 35±0.5 °C and the “brightness compared to Spinach” value ([4]; 1 μM RNA, 10 μM DFHBI, 25 °C) is reported as “as bright as Spinach”.
